Consider 2 molecules from PMC8948278, “Antibody-dependent enhancement (ADE) of SARS-CoV-2 pseudoviral infection requires FcγRIIB and virus-antibody complex with bivalent interaction” (Communications Biology, 2022).

By koff is commonly meant the first-order rate constant of dissociation.

This assay addresses Recombinant SARS-CoV-2 S trimer protein (ACRO Biosystems SPN-C52H9) (SARS-CoV-2, Wuhan-Hu-1 (reference spike), UniProt P0DTC2). Briefly: SPR. The note with it: both partners purified.

B1: KIH format bivalent MW07 (MW07/KIH) (antibody, V domains shown)
VH: EVQLVESGGGLVQPGGSLRLSCAASGFTFSSYWMSWVRQAPGKGLEWVANIKQDASEKYYLDSLKGRFTISRDNAKNSLYLQMNSLRAEDTAVYYCARDLGILWFGDYPWGQGTLVTVSS
VL: DIQMTQSPSSLSASVGDRVTITCRASQGISNSLAWYQQKPGKAPKLLLYAASTLESGVPSRFSGSGSGTDFTLTISSLQPEDFATYYCQQFYSTPRTFGQGTKVEIK
notes: also called knob-in-hole format bivalent mAb; copies: + + 2
B1: the koff was determined as 3.02e-05 s⁻¹.

B2: KIH format bivalent MW05 (MW05/KIH) (antibody, V domains shown)
VH: EVQLVQSGAEVKKPGSSVKVSCKASGGTFSSYAISWVRQAPGQGLEWMGRIIPIFGSSNYAQKFQGRVTITADESTSTAYMELSSLRSEDTAVYYCAESPLGGGSGYSVSWFDPWGQGTLVTVSS
VL: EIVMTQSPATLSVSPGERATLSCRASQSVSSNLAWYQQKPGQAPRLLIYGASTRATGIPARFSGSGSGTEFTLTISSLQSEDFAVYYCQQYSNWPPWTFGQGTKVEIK
notes: as for B1
With B2, the koff was 8.52e-05 s⁻¹.
